The values below come from patent US20250340655A1, “EPHA2-TARGETING ANTIBODIES AND THEIR APPLICATIONS IN CANCER TREATMENT” (TAIPEI MEDICAL UNIVERSITY, priority 2022, published 2025).

In experiment [1] the test system is HCT116, SW480 and SW460. Briefly: MTS growth inhibition, colon cancer cells. The class given is cell-based. The settings on record: 3 days (FIG. 18C). Here is the method: The growth inhibitory effect of hSD5-ADC on the three strains of colon cancer cells were tested under different concentrations. At indicated concentrations interacted with the cancer cells for 3 days, and the effects on the growth of cancer cells were observed by MTS assay. (FIG. 18C)

Experiment [2] relates to BxPc-3 tumor. Briefly: BxPc-3 tumor xenograft model (IgG hSD5, gemcitabine). It is filed as in vivo, mouse. The protocol:
The freshly prepared BxPc-3 and Mia PaCa-2 cancer cells were harvested during the log growth phase and resuspended in PBS for tumor implantation. Each NOD/SCID mouse was subcutaneously inoculated with cancer cells (5×10^6 to BxPc-3 and 1×10^7 to Mia PaCa-2) for tumor formation. The tumor size was measured twice weekly, and the volume was calculated as follows: V=0.5lw^2, where l=the length and w=the width. When the tumor size was approximately 100 mm3, animals were divided into groups that received (a) vehicle alone through intravenous injection (i.v.) once weekly (qwk), (b) control human IgG1 at 20 mg/kg through i.v. qwk, (c) and (d) hSD5 IgG1 at 2 or 20 mg/kg through i.v. qwk, (e) and (f) gemcitabine at 20 or 100 mg/kg through i.v. twice weekly (biw), or (g) hSD5 IgG1 at 2 mg/kg through i.v. qwk combined with gemcitabine at 20 mg/kg through i.v. biw. At the end of the experiment, the antitumor effects were quantified by dividing the tumor volumes in the treatment groups by those in the control groups and multiplying them by 100 to represent tumor growth inhibition (TGI; %). The mice were also examined frequently for overt signs of adverse drug-related side effects.
The pancreatic tissue microarray slide (US Biomax, PA483e) was used to detect and analyze the EphA2 expression of clinical samples. In the xenograft animal model, the excised BxPc-3 and Mia PaCa-2 tumors were fixed in formalin, embedded in paraffin, and sliced for immunohistochemical staining (IHC). Commercial antibodies (Cell signaling, Dako; Agilent Technologies; and Abcam) were used for staining the EphA2 molecule, cell proliferation marker Ki-67, and apoptosis marker cleaved caspase 3. The effects of staining were observed using a Zeiss Axioskop-2 microscope (Carl Zeiss).
Administration of IgG hSD5 (20 mg/kg, iv, qwk, indicated as blue filled inverted triangles) and Gemcitabine (100 mg/kg, iv, biw, indicated as orange filled squares) were used to test the inhibition effect on BxPc-3 tumor growth, n=6, TGI denotes Tumor growth inhibition. (FIG. 7A) Administration of IgG hSD5 (2 mg/kg, iv, qwk, indicated by solid black triangles), Gemcitabine (20 mg/kg, iv, biw, indicated by black open squares), and the experimental group that combined IgG and Gemcitabine treatment simultaneously (indicated by solid red diamonds) were used to teat the growth inhibitory effect of BxPc-3 on the tumor. (FIG. 7B) During treatments, the weight changes of each mouse group were tracked. (FIG. 7C) The expression levels of EphA2, cell proliferation marker Ki67, and apoptosis-related marker cleaved caspase3 in the excised tumor groups were analyzed by IHC staining. (FIG. 7D)

The test system of experiment [3] is hTERT HPNE, AsPC-1, BxPc-3, and Mia PaCa-2. In words: Growth inhibitory response of pancreatic cell lines to serially diluted hSD5-ADC. The class given is cell-based, human. As to conditions: serial dilution (FIGS. 11A-11D).
Experiment [4] has as its target T1, endogenous EphA2 molecules on cholagiocarcinoma cell lines (HuCCT1, ssp-25, RBE, TFK) and bladder cancer cell line (PC-3) (Homo sapiens, UniProt P29317).
T1 construct: endogenous in cells; host or cells: HuCCT1, ssp-25, RBE, TFK, PC-3
In words: Flow cytometry binding on cholagiocarcinoma and bladder cancer cell lines. As to conditions: cholagiocarcinoma and bladder cancer cell lines (FIG. 17B). An excerpt:
Flow cytometry was used to analyze the response of hSD5 IgG with different concentrations in identifying endogenous EphA2 molecules on the four strains of cholagiocarcinoma cell lines and bladder cancer cell line. PC represents the use of commercial Ab to determine the expression of EphA2 on cancer cells.

The subject of experiment [5] is SNU-16, N87 and MKN-45. Briefly: MTS growth inhibition, gastric cancer cells. The class given is cell-based. As to conditions: 3 days (FIG. 15B). The protocol: The growth inhibitory effect of hSD5-ADC on the three strains of gastric cancer cells were tested under different concentrations. At indicated concentrations interacted with the cancer cells for 3 days, and the effects on the growth of cancer cells were observed by MTS assay. […] (FIG. 15B)

Experiment [6] deals with T2, endogenous EphA2 molecule on colon cancer cells (HCT116, SW480 and SW460) (Homo sapiens, UniProt P29317).
T2 construct: endogenous in cells; host or cells: HCT116, SW480, SW460
T2 sequence (P29317 24-976): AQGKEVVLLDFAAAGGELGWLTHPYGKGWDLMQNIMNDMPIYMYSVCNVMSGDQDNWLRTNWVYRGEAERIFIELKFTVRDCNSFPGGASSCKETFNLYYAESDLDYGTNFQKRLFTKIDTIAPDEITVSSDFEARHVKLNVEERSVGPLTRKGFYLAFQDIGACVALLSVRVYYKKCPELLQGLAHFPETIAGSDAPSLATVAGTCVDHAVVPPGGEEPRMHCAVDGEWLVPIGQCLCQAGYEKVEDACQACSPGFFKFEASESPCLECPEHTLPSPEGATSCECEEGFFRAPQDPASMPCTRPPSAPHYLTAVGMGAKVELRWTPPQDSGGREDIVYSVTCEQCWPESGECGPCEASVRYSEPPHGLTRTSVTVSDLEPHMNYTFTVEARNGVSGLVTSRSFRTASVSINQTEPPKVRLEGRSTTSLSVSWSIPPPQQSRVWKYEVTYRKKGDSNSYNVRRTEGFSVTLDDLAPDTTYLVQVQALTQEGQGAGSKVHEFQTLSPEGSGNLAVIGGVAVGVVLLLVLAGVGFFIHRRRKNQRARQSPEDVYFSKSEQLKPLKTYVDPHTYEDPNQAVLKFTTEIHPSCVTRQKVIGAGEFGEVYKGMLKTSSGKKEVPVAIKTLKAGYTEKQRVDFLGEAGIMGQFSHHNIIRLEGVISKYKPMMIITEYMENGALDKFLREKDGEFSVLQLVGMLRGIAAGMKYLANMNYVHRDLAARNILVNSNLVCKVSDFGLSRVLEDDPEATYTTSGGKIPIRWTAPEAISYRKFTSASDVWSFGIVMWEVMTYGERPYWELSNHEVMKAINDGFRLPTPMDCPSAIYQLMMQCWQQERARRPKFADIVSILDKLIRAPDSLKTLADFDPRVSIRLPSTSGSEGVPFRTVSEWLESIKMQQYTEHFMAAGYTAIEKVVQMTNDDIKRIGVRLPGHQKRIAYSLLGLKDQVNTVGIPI
In words: Flow cytometry binding on colon cancer cells. The settings on record: flow cytometry (FIG. 18B).

Experiment [7] has as its system EphA2pep_P1 and EphA2pep_P2 synthetic peptides. Briefly: Dot blot assay with synthetic peptides. It is filed as binding. As to conditions: dot blot (FIG. 9B). An excerpt: We used peptide enzyme-linked immunosorbent assay (ELISA) to identify the designed epitope on EphA2; the BSA-conjugated peptides EphA2pep_P1 (BSA-[…]) and EphA2pep_P2 (BSA-[…]) each represent the two segments of the linear epitope designed on EphA2. EphA2pep_PIP2 (BSA-[…]) represents the two linear epitope sequences connected by a linker. These peptides were synthesized and conjugated with BSA (Kelowna International Scientific). The BSA-conjugated peptides were individually coated on a 96-well microplate at 4° C. overnight. After the wells were blocked with 3% BSA, IgG hSD5 was added and incubated. Next, an HRP-conjugated anti-HA tag antibody (Cell Signaling Technology) was used to detect bound scFv. Finally, the TMB substrate was added for development, and the reaction was stopped by adding 1 N HCl. Absorbance was measured by determining the OD at 450 nm. A dot blot assay was used to detect the binding of IgG hSD5 to the synthesized peptides; […] of individual peptides (1 mg/mL; in triplicate) were dropped on the NC membrane and maintained at RT for complete absorption. Blocking with 3% BSA was performed at RT for 1 h. Then, IgG hSD5 (10 μg/mL) was added, and the reaction was allowed to proceed for 1 h at RT. After the membrane was washed, the HRP-conjugated anti-HA tag antibody was added, and the reaction was allowed to proceed for 1 h at RT. […]

T1 sequence (P29317 24-976): as above

B1: IgG hSD5: complete humanized anti-EphA2 IgG (IgG1) of hSD5 (antibody, V domains shown)
VH: QVQLVESGGGLVQPGGSLRLSCAASGFTFSDYGMGWVRQAPGKGLEWVAGISAAGSFTPYGAAVKGRFTISRDNSKNTVYLQMNSLRAEDTAVYYCARIPSGYRAGEIYTWGQGTLVTVSS
VL: LTQPPSVSVSPGQTVRITCSGSSGSYGWYQQKSPGQAPVTLIYDNDKRPSGIPERFSGSSSGSTSTLTISGVQAEDEADYYCGSADSSTYVGMFGGGTKLTVL
Take B1: the “growth inhibitory response of colon cancer cells” value in experiment [1] is on record as “does not provide ideal inhibition effect”. In addition, in experiment [2] (BxPc-3 xenograft mice), the “effect on growth of tumors in vivo” value is listed as “significantly inhibited the growth of tumors”. Also, the “TGI (tumor growth inhibition)” value in experiment [2] (BxPc-3 xenograft, 20 mg/kg, iv, qwk) was 53.1%. Also, the “expression levels of EphA2 and Ki-67 in the tumors” value in experiment [2] (IHC of removed BxPc-3 tumors, compared with control IgG group (FIG. 7D)) is reported as “significantly decreased”. For the same molecule, in experiment [3], the “growth inhibitory response of pancreatic cell lines” value is given as “does not provide ideal inhibition effect”. Moreover, the “binding response to EphA2 molecules on cancer cells” value in experiment [4] and in experiment [6] was “significant binding response” in each case. Besides, the “growth inhibitory response of gastric cancer cells” value in experiment [5] was “does not provide ideal inhibition effect”. The “binding reaction with EphA2pep_P1 compared with EphA2pep_P2” value in experiment [7] is listed as “stronger”. In experiment [7], the “recognition of EphA2pep_P1 and EphA2pep_P2” value was “can recognize both the antigen fragments”.
